According to patent US6747005:

Assays:
[1] = molecular target: Rch1 N-terminal fragment (residues 1-95), P52292
[2] = molecular target: recombinant Importin α Rch1, full-length, P52292
[3] = molecular target: ΔN-Rch1 lacking the Importin β binding site, P52292

B1: recombinant CBP HAT domain (amino acids 1098-1758) (protein)
chain: TLEALYRQDPESLPFRQPVDPQLLGIPDYFDIVKNPMDLSTIKRKLDTGQYQEPWQYVDDVWLMFNNAWLYNRKTSRVYKFCSKLAEVFEQEIDPVMQSLGYCCGRKYEFSPQTLCCYGKQLCTIPRDAAYYSYQNRYHFCEKCFTEIQGENVTLGDDPSQPQTTISKDQFEKKKNDTLDPEPFVDCKECGRKMHQICVLHYDIIWPSGFVCDNCLKKTGRPRKENKFSAKRLQTTRLGNHLEDRVNKFLRRQNHPEAGEVFVRVVASSDKTVEVKPGMKSRFVDSGEMSESFPYRTKALFAFEEIDGVDVCFFGMHVQNTALIAPHQIQGRVYISYLDSIHFFRPRCLRTAVYHEILIGYLEYVKKLGYVTGHIWACPPSEGDDYIFHCHPPDQKIPKPKRLQEWYKKMLDKAFAERIINDYKDIFKQANEDRLTSAKELPYFEGDFWPNVLEESIKELEQEEEERKKEESTAASETPEGSQGDSKNAKKKNNKKTNKNKSSISRANKKKPSMPNVSNDLSQKLYATMEKHKEVFFVIHLHAGPVISTQPPIVDPDPLLSCDLMDGRDAFLTLARDKHWEFSSLRRSKWSTLCMLVELHTQGQDRFVYTCNECKHHVETRWHCTVCEDYDLCINCYNTKSHTHKMVKWGLGLDDEGSSQG
With B1 the “acetylation (analysis as in the first experiment)” value (Importin α7) was “CBP was shown to acetylate Importin α family members, Rch1 and Importin α7”, the “acetylation ([14-C]-acetyl coA, SDS-PAGE, blot exposed to film)” value [1] was “Only the full-length Rch1 and the N-terminal 1-95 fragment showed acetylation” and the “acetylation ([14-C]-acetyl coA, SDS-PAGE, blot exposed to film)” value [2] was “Only the full-length Rch1 and the N-terminal 1-95 fragment showed acetylation”. The “acetylation (analysis as in the first experiment)” value [2] was “CBP was shown to acetylate Importin α family members, Rch1 and Importin α7” and the “acetylation ([14-C]-acetyl coA, SDS-PAGE, blot exposed to film)” value [3] was “Only the full-length Rch1 and the N-terminal 1-95 fragment showed acetylation. (ΔN-Rch1 showed none)”.
